The values below are quoted from earlier work in PMC12023029.

By pKa is commonly meant the pH at which an ionisable group is half protonated.

In this data set the target is His50 (UniProt position 50, KEGVVHGVATV). Kind of data set: NMR (per title of cited reference 59). The settings on record: free monomer, disordered.

For “alpha-synuclein (aSyn) (Homo sapiens (inferred; the article does not name the species and discusses Parkinson's disease patients))”, the pKa is 6.5 (150 mM salt, high salt) and 6.8 (low salt, article gives '4' mM as the lower end of the salt change).
